Results taken from publication PMC4437028 (2015).
Values belong to the molecule of their own block, whether it stands above or below them.

Key:
[1] = molecular target: mouse Slitrk2 LRR1 (first leucine-rich repeat of Slit and Trk-like family member 2), wild type (UniProt Q810C0); experiment: SPR equilibrium analysis; conditions: point at 4 µM PTPδ Ig1-Fn1 (highest concentration); Slitrk2 LRR1 immobilized on a CM5 sensor tip; parent: est. 600; read off a plot
[2] = molecular target: T1, mouse Slitrk2 LRR1 (first leucine-rich repeat of Slit and Trk-like family member 2), wild type, Q810C0; experiment: SPR equilibrium analysis; conditions: chain shown with the change, Slitrk2 LRR1 immobilized on a CM5 sensor tip
T1 chain: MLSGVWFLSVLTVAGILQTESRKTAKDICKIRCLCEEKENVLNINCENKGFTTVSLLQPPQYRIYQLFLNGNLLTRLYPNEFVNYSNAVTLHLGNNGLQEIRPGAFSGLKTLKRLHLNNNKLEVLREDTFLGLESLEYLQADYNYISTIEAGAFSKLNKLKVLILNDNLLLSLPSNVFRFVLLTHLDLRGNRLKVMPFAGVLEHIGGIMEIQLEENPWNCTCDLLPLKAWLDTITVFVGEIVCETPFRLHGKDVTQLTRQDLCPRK

[3] = molecular target: T2, mouse Slitrk2 LRR1 (first leucine-rich repeat of Slit and Trk-like family member 2), wild type (mouse, UniProt Q810C0 1-266, N-linked glycans); experiment: SPR
T2 chain: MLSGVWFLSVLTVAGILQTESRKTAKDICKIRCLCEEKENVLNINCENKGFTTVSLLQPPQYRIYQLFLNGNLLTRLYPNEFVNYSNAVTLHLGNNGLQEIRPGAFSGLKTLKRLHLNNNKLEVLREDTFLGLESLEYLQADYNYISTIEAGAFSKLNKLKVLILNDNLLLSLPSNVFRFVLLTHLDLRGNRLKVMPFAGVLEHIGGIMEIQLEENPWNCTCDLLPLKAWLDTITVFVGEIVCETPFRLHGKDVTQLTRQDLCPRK

mouse Slitrk2 LRR1 R114A = molecular target: T3, mouse Slitrk2 LRR1 R114A (mouse, UniProt Q810C0 1-266, R114A); experiment: SPR
T3 sequence: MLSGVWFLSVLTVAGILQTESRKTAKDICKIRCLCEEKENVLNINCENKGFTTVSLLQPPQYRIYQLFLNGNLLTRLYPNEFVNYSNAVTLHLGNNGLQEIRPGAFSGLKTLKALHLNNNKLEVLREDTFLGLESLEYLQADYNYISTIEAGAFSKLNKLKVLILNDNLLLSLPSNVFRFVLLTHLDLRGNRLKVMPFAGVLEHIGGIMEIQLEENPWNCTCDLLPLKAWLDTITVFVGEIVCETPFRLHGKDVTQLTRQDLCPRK

[4] = molecular target: T4, mouse Slitrk2 LRR1 F247A H250A (mouse, UniProt Q810C0 1-266, F247A | H250A); experiment: SPR
T4 sequence: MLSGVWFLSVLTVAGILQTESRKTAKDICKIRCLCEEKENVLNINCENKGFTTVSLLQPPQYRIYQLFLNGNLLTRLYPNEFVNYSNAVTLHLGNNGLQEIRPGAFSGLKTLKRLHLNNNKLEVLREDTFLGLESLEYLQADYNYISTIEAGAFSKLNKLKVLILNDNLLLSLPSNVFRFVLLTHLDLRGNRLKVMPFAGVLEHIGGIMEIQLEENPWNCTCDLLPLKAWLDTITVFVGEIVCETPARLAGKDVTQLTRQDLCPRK

[5] = molecular target: mouse Slitrk2 LRR1 (first leucine-rich repeat of Slit and Trk-like family member 2), wild type (mouse) (UniProt Q810C0); experiment: crystal structure; Slitrk2 LRR1 and PTPδ Ig1-Fn1 mixed at a molar ratio of 1:1, treated with neuraminidase; sitting drop vapor diffusion, 293 K, 15% PEG4000, 0.1 M sodium acetate, 0.1 M MES (pH 6.0); 3.35 Å

response (Response unit) [1]: 97
Molecule: mouse PTPδ Ig1-Fn1 (residues 28-418), splice variant meA9B+ (from UniProt Q64487) R236E

Kd ([2]; PTPδ Ig1-Fn1 injected, parent: 355.5 ± 6.5 nM): 312 nM
response (Response unit) ([2]; point at 4 µM PTPδ Ig1-Fn1 (highest concentration), parent: est. 600, read off a …): 500
B1: mouse PTPδ Ig1-Fn1 (residues 28-418), splice variant meA9B+, Q64487 Y273A (protein)
chain: ETPPRFTRTPVDQTGVSGGVASFICQATGDPRPKIVWNKKGKKVSNQRFEVIEFDDGSGSVLRIQPLRTPRDEAIYECVASNNVGEISVSTRLTVLREDQIPRGFPTIDMGPQLKVVERTRTATMLCAASGNPDPEITWFKDFLPVDTSNNNGRIKQLRSESIGGTPIRGALQIEQSEESDQGKYECVATNSAGTRYSAPANLYVRELREVRRVPPRFSIPPTNHEIMPGGSVNITCVAVGSPMPAVKWMLGAEDLTPEDDMPIGRNVLELNDVRQSANYTCVAMSTLGVIEAIAQITVKALPKPPGTPVVTESTATSITLTWDSGNPEPVSYYIIQHKPKNSEEPYKEIDGIATTRYSVAGLSPYSDYEFRVVAVNNIGRGPASEPVLTQ

Kd [3]: 356 nM
Kd (mouse Slitrk2 LRR1 R114A): 257 nM
Kd [4]: 580 nM
stoichiometry N [5]: 1
B2: mouse PTPδ Ig1-Fn1 (residues 28-418), splice variant meA9B+ (domain or fragment)
chain: ETPPRFTRTPVDQTGVSGGVASFICQATGDPRPKIVWNKKGKKVSNQRFEVIEFDDGSGSVLRIQPLRTPRDEAIYECVASNNVGEISVSTRLTVLREDQIPRGFPTIDMGPQLKVVERTRTATMLCAASGNPDPEITWFKDFLPVDTSNNNGRIKQLRSESIGGTPIRGALQIEQSEESDQGKYECVATNSAGTRYSAPANLYVRELREVRRVPPRFSIPPTNHEIMPGGSVNITCVAVGSPMPYVKWMLGAEDLTPEDDMPIGRNVLELNDVRQSANYTCVAMSTLGVIEAIAQITVKALPKPPGTPVVTESTATSITLTWDSGNPEPVSYYIIQHKPKNSEEPYKEIDGIATTRYSVAGLSPYSDYEFRVVAVNNIGRGPASEPVLTQ
modifications: N-linked glycans

Kd [3]: 451 nM
B3: mouse PTPδ Ig1-Fn1, splice variant meA-B+ (domain or fragment)
chain: ETPPRFTRTPVDQTGVSGGVASFICQATGDPRPKIVWNKKGKKVSNQRFEVIEFDDGSGSVLRIQPLRTPRDEAIYECVASNNVGEISVSTRLTVLREDQIPRGFPTIDMGPQLKVVERTRTATMLCAASGNPDPEITWFKDFLPVDTSNNNGRIKQLRSGALQIEQSEESDQGKYECVATNSAGTRYSAPANLYVRELREVRRVPPRFSIPPTNHEIMPGGSVNITCVAVGSPMPYVKWMLGAEDLTPEDDMPIGRNVLELNDVRQSANYTCVAMSTLGVIEAIAQITVKALPKPPGTPVVTESTATSITLTWDSGNPEPVSYYIIQHKPKNSEEPYKEIDGIATTRYSVAGLSPYSDYEFRVVAVNNIGRGPASEPVLTQ
